We go through three substances from PMC7484505.

For one assay, the target named is hNav1.7/A1632E (human) (UniProt Q15858).
Assay [1] concerns the target hNav1.7/A1632E^His-StrepII (human) (UniProt Q15858).
The target in the next assay is hNav1.7^GFP (human) (UniProt Q15858).

The substance “hNav1.7/A1632E (from UniProt Q15858-3 1-1977) (natural protein)” registered a maximal relative persistent current of hNav1.7/A1632E in HEK293T cells (patch clamp), without against with co-expressed difopein with hNav1.7/A1632E (human) of 13.2%.
As for “hNav1.7/A1632E^His-StrepII (from UniProt Q15858-3 1-1977) (natural protein)”, the maximal relative persistent current of hNav1.7/A1632E in X. laevis oocytes (TEVC), without against with co-injected difopein cRNA in assay [1] was -13.6%.
“hNav1.7/R896Q (from UniProt Q15858-3 1-1977) (natural protein)” yielded a peak current density (whole-cell patch clamp) of the Nav1.7 stable HEK cell line (untagged hNav1.7/WT) on co-expression of hNav1.7/R896Q, against the stable line alone with hNav1.7^GFP (human) of 31%.
